Columns and labels:
[1] = molecular target: His-SctV-C, isolated C-terminal cytoplasmic domain of EPEC SctV (enteropathogenic E. coli (EPEC)); test: native MS
[2] = molecular target: His-SctV-C, isolated C-terminal cytoplasmic domain of EPEC SctV (enteropathogenic E. coli (EPEC)); test: SEC-MALS
[3] = molecular target: His-SctV-C, isolated C-terminal cytoplasmic domain of EPEC SctV (enteropathogenic E. coli (EPEC)); test: native gel or EMSA
[4] = molecular target: His-SctV, full length, synthesized in C41; also reconstituted in peptidiscs (His-SctV9-PR) (enteropathogenic E. coli (EPEC)); test: SEC-MALS
[5] = molecular target: His-SctV, full length, synthesized in C41; also reconstituted in peptidiscs (His-SctV9-PR) (enteropathogenic E. coli (EPEC)); test: native gel or EMSA
[6] = molecular target: SctV, full length, untagged, plasmid-borne in E. coli C41 (enteropathogenic E. coli (EPEC)); test: native gel or EMSA

## His-SctV-C, isolated C-terminal cytoplasmic domain of EPEC SctV (domain or fragment)
[1]
  stoichiometry N: 9
[2]
  stoichiometry N: 9
[3]
  stoichiometry N: 9

## His-SctV, full length, synthesized in C41; also reconstituted in peptidiscs (His-SctV9-PR) (natural protein)
[4]
  stoichiometry N: 9
[5]
  stoichiometry N: 9

## SctV, full length, untagged, plasmid-borne in E. coli C41 (natural protein)
[6]
  stoichiometry N: 9
